For this assay, the target named is T1, hmm.hTfRC (REGN2431) (human, UniProt P02786 89-760).
T1 construct: also called hmm.hTfR(C89-F763); His-myc-myc-hTFRC ecto
Briefly: blocking ELISA; Hmm-hTFRC + supernatant on plate-bound holo-Tf.

T1 sequence (P02786 other isoform, or with tags, fused parts or gaps): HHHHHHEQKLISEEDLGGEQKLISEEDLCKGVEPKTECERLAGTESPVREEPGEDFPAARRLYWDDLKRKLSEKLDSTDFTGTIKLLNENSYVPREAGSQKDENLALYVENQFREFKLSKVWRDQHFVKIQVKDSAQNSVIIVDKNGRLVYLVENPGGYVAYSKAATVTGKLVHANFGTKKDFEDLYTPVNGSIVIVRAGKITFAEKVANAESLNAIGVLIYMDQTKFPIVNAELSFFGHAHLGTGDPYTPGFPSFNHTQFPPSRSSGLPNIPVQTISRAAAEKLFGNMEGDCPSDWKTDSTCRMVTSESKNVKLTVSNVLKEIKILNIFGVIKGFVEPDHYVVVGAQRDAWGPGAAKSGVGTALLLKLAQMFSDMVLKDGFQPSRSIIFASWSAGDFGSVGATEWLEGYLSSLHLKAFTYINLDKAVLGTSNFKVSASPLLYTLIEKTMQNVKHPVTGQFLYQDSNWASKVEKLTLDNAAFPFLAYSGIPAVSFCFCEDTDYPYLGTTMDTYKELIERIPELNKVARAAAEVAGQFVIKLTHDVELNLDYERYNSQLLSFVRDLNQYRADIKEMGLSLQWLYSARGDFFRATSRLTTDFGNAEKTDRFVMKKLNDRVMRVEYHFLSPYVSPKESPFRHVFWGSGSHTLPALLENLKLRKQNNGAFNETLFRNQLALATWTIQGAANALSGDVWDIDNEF

B1: 69307 scFv (VH-VK) (scFv)
chain: EVQLVESGGGLVQPGGSLRLSCTASGFTFSNYWMTWVRQAPGKGLEWVANIKEDGSEKEYVDSVKGRFTISRDNAKNSLYLQMNSLRGEDTAVYYCARDGEQLVDYYYYYVMDVWGQGTTVTVSSDIQMTQSPSSVSASVGDRVTITCRASQGISSWLAWYQQKPGKAPKLLIYAASSLQSGVPSRFSGSGSGTDFTLTISSLQPEDFATYYCQKADSLPYAFGQGTKLEIK
B1: the “% Blocking” value came to 9%.

B2: 12802B scFv (VH-VK) (scFv)
chain: QVQLVESGGGLVKPGGSLRLSCAASGFTFSDYFMSWIRQAPGKGLEWVSYISSTGSTINYADSVKGRFTISRDNVKNSLYLQMTSLRVEDTAVYYCTRDNWNYEYWGQGTLVTVSSEIVMTQSPATLSVSPGERATLSCRASQSVSINLAWYQQKPGQAPRLLIFVASTRATGIPARFSGSGSGTEFTLTISSLQSEDFATYYCQQYDIWPYTFGQGTKLEIK
As to B2, the “% Blocking” value was 11%.

B3: 12798B scFv (VH-VK) (scFv)
chain: EVQLVESGGDLVQPGRSLRLSCAASGFTFDDYAMHWVRQAPGKGLEWVSGISWNSATRVYADSVKGRFTISRDNAKNFLYLQMNSLRSEDTALYHCAKDMDISLGYYGLDVWGQGTTVTVSSEIVMTQSPATLSVSPGERATLSCRASQTVSSNLAWYQQKPGQAPRLLIYGSSSRATGIPARFSGSGSGTEFTLTISSLQSEDFAVYYCQQYNNWPPYTFGQGTKLEIK
As for B3, the “% Blocking” value worked out at 0%.

B4: 12812B scFv (VH-VK) (scFv)
chain: QVQLVQSGAEVKKPGSSVRVSCKASRGTFSSYAISWVRQAPGQGLEWMGGIIPIFGTANYAQKFLARVTITADESTSTAYMELSSLRSEDTAVYYCAREKGWNYFDYWGQGTLVTVSSDIQMTQSPPSVSASVGDRVTITCRASQGISSWLAWYQQKPGKAPKLLIYAASSLQSGVPSRFSGSGSGTDFTLTISSLQPEDFATYYCQQANSFPRTFGQGTKVEIK
As for B4, the “% Blocking” value was 19%.

B5: 12799B scFv (VH-VK) (scFv)
chain: QITLKESGPTLVKPTQTLTLTCTFSGFSLSTSGVGVVWIRQPPGKALEWLALIYWNDHKRYSPSLGSRLTITKDTSKNQVVLTMTNMDPVDTATYYCAHYSGSYSYYYYGLDVWGQGTTVTVSSDIQMTQSPSSVSASVGDRVTITCRASQGIASWLAWYQQKPGKAPELLIYAASSLQGGVPSRFSGSGSGTDFTLTISSLQPEDFAIYYCQQANYFPWTFGQGTKVEIK
For B5, the “% Blocking” value stood at 26%.

Source of the values: US20250041455A1 (Regeneron, published 2025).
